The target of experiment [1] is T1, rat IAPP (rat, UniProt P12969 38-74).
T1 peptide (looked up): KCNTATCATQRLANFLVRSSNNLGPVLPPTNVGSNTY
Kind of experiment: Biacore SPR; antibody captured on anti-human CM5 chip, rat IAPP flowed over; global 1:1 fit. As to the method:
(§1) The affinity of various combinations of 6B8 humanized heavy chains and humanized light chain proteins for hIAPP was analyzed on a Biacore instrument. Biacore analysis was performed by preparing an anti-human CM5 chip following the protocol provided in the kit. The 6B8 antibody was captured such that the maximum binding of rat IAPP would not exceed 20-30 RU. […] Data was blank subtracted to both an irrelevant sensor not containing 6B8 and 0 IAPP concentration to account for the dissociation of 6B8 from the anti-human capture. Data was then analyzed using a global 1:1 fit.

For experiment [2], the target named is T1, rat IAPP. The experiment in a line: not stated for the murine antibody; sentence follows the Biacore results.
The target of experiment [3] is T2, human islet-amyloid polypeptide (IAPP) (human).
T2 construct: also called hIAPP; human IAPP
T2 peptide: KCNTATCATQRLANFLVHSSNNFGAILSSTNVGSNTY
Kind of experiment: Biacore SPR; affinity compared with murine 6B8 as reference. The protocol: as §1

In experiment [4] the target is T1, rat IAPP. Kind of experiment: Biacore SPR (result of Example 7 told in the description). The protocol:
as §1
A general note: SPR reads the build-up and loss of mass on a sensor chip optically.

Experiment [5] addresses T3, peptide NTATCATQRL, amino acids 3-12 of hIAPP (human).
T3 peptide: NTATCATQRL
Kind of experiment: epitope mapping against shorter peptides from hIAPP.

B1: chimeric mouse-human 6B8 antibody (antibody, V domains shown)
VH: QVQLQQPGAELVKPGASVRLSCKASGYTFTSYWMHWVKQRPGQGLEWLGEINPRNGHSNYNEKIRNKATLTADTSSSTVSMQLSSLTSEDSAVYYCTVNRGFYYFFDVWGTGTTVTVSS
VL: DVLMTQSPLSLPVSLGDQASISCRSSQSIAHSNGNTYLEWYLQKPGQSPKLLIYKVSNRFSGVPDRFSGSGSGTDFTLKISRVEAEDLGVYYCFQGSHIPRTFGGGTKLEIKR
notes: Mouse 6B8 variable regions with human constant regions; captured on an anti-human chip; also called ch6B8; chimeric 6B8 antibody
As to B1, in the experiment with rat IAPP [1], the Kd (as a rule, the concentration at which binding is half-saturated) worked out at 23.4 nM; the koff (in general, a measure of how fast the partners let go of each other) came to 0.00513 s⁻¹; the kon (as a rule, a measure of how fast the partners come together) stood at 220000 M⁻¹ s⁻¹. Further, the “fold difference in affinity against the murine 6B8 antibody” value in the experiment with rat IAPP [2] was at most 3 fold. Further, the “fold of the affinity of the murine 6B8 antibody” value in experiment [3] was at most 3 fold.

B2: humanized 6B8 H2L1 antibody (antibody, V domains shown)
VH: QVQLQQSGAEVKKPGASVKVSCKASGYTFTSYWMHWVRQRPGQGLEWMGEINPRNGHSNYNEKIRNRVTMTADTSTSTVYMELSSLRSEDTAVYYCTVNRGFYYFFDVWGQGTTVTVSS
VL: DVLMTQSPLSLPVTPGEPASISCRSSQSIAHSNGNTYLEWYLQKPGQSPQLLIYKVSNRFSGVPDRFSGSGSGTDFTLKISRVEAEDVGVYYCFQGSHIPRTFGGGTKLEIKR
notes: Only variable regions are tied to the tested antibody; also called h6B8-H2L1; h6B8 H2L1
Turning to B2, in the experiment with rat IAPP [1], the Kd was 31.2 nM, the koff came out at 0.00832 s⁻¹ and the kon came out at 266000 M⁻¹ s⁻¹. The “fold difference in affinity against the murine 6B8 antibody” value in the experiment with rat IAPP [2] was at most 3 fold. For the same molecule, in the experiment with rat IAPP [4], the “factor of affinity against the mouse-human chimeric 6B8 antibody” value is at most 1.5 fold. Also, in experiment [3], the “fold of the affinity of the murine 6B8 antibody” value is at most 3 fold.

B3: murine 6B8 antibody (LA21-6B8) (antibody, V domains shown)
VH: QVQLQQPGAELVKPGASVRLSCKASGYTFTSYWMHWVKQRPGQGLEWLGEINPRNGHSNYNEKIRNKATLTADTSSSTVSMQLSSLTSEDSAVYYCTVNRGFYYFFDVWGTGTTVTVSS
VL: DVLMTQSPLSLPVSLGDQASISCRSSQSIAHSNGNTYLEWYLQKPGQSPKLLIYKVSNRFSGVPDRFSGSGSGTDFTLKISRVEAEDLGVYYCFQGSHIPRTFGGGTKLEIKR
notes: also called m6B8; mouse 6B8
Take B3: the binding result in experiment [5] is on record as “binds”.
